Laboratory results: patent US20210198349A1 (NEW YORK UNIVERSITY, published 2021)

T1: Tau 407-423 peptide (non-truncated Asp421 epitope)
T1 construct: Immobilized in the ELISA, analyte in the Biacore analysis
T1 peptide: HLSNVSSTGSIDMVDSP

T2: Tau 407-421 peptide (Truncated Asp421 Epitope of Tau)
T2 construct: Immobilized in the ELISA, analyte in the Biacore analysis
T2 peptide: HLSNVSSTGSIDMVD


Legend:
[1] = target: T1, Tau 407-423 peptide (non-truncated …); assay: Biacore (SPR), peptide as analyte
[2] = target: T2, Tau 407-421 peptide (Truncated Asp421 …); assay: Biacore (SPR), peptide as analyte
[3] = target: T1, Tau 407-423 peptide (non-truncated …); assay: ELISA, immobilized peptide
Excerpt: (§1) The data thus confirms the ability of Antibodies 1G11A10, 5G2A3 and 5G2G6 to immunospecifically bind to the Truncated Asp421 Epitope of Tau.

[4] = target: T2, Tau 407-421 peptide (Truncated Asp421 …); assay: ELISA
Excerpt: as §1

[5] = target: T1, Tau 407-423 peptide (non-truncated …); assay: Biacore, peptide as analyte

Row | Kd [1] [µM] | Kd [2] [µM] | binding result [3] | binding result [4] | binding result [5] | Binder
1 | 5.07 | 0.00746 | – | – | – | Antibody 5G2A3 (antibody, V domains shown, Hybridoma-derived monoclonal antibody; also called 5G2A3/5G2G6) VH: EVKLVESGGGLVKPGGSLTLSCAASGFTFSSYAMSWVRQTPEKSLEWVASISSGGNTFYPDTVKGRFTISRDNARNILYLQMSGLRSEDTAIYYCARRGDPNMITTLFGYWGQGTLVTISA VL: DVLMTQTPLSLPVSLGDQASISCRSSQSILHRNGNTYLDWFLLKPGQSPKLLIYKVSNRFSGVPDRFSGSGSGTDFTLKISRVEAEDLGVYYCFQGSHVPWTFGGGTKLEIK
2 | – | – | no binding | – | – | Antibody 5B3C11 (antibody, V domains shown, Tested as hybridoma culture supernatant) VH: EVQLVESGGGLVKPGGSLKLSCAASGFTFSNYALSWVRQTPEKRLEWVASISSGGNTYYPDSVKGRFTISRDNARNILYLQMSSLRSEDTAMFYCTSRGDTTLITTLFTYWGQGTLVTVSA VL: DVLMTQTPLSLPVSLGDQASISCRSNQSILHSNGNTYLDWYLQKPGQSPKLLIYKVSNRFSGVPDRFSGSGSGTDFTLRISRVEAEDLGVYYCFQGSHIPWTFGGGTKLEIK
3 | – | – | no binding | binds | – | Antibody 1G10D2 (antibody, V domains shown) VH: EVKLVESGGDLVTPGGSLKVSCAASGLTFSDSAMSWVRLTPEKRLEWVASISTGGATYYPDGLKGRFTISRDDARNILFLQMNSLRSEDTAMYYCTRRGVSSGNLFTYWGQGTLVTVSA VL: DVLMTQTPLSLPVSLGDQASISCRSSQSILNSNGNTYLEWYLQKPGQSPKLLIYKVSNRFSGVPDRFSGSGSGTDFTLKISRVEAEDLGVYYCFQGSHVPWTFGGGTKLEIK
4 | – | 1.07 | – | – | no binding | Antibody 1G11A10 (antibody, V domains shown, Hybridoma-derived monoclonal antibody) VH: EVKLVESGGGLMKPGGSLKLSCAASGFTFSSYAMSWVRQSPEKRLEWVASISSGGQTYSPDSVKGRFTISRDNARNILYLQMRNLRSEDTAMYYCASRGDPTMTATLFVYWGQGTLVTVS VL: DVLMTQTPLSLPVSLGDQASISCRSSQSIINSNGNTYLEWYLQKPGQSPKLLIYKVSNRFSGVPDRFSGSGSGTDFTLKISRVETEDLGIYYCFQGSHVPWTFGGGTKLEIK
